Where a chain is given by its changes, count along the chain named. Read-outs that look alike come from different tables or passages of the source.

Usually EC50 stands for the concentration that produces a half-maximal response. Usually Kd stands for the concentration at which binding is half-saturated.

The target in experiment [1] is T1, mouse thyroid-stimulating hormone receptor (TSHR) (mouse, UniProt P47750 22-764).
T1 construct: whole, on cells; Overexpressed on 293 cells; also called mouse TSHR; murine TSHR
The experiment can be described thus: flow cytometry (FACS), 293 cells overexpressing mouse TSHR. (In general: Flow cytometry measures light scatter and fluorescence of single cells or particles in a stream.)

Experiment [2] deals with T2, human thyroid-stimulating hormone receptor (TSHR) (human, UniProt P16473 21-764). As to the kind of experiment: cell-based or functional assay.
The target of experiment [3] is T2, human thyroid-stimulating hormone …. The experiment can be described thus: cell-based or functional assay. The source holds these as a separate data set.
Experiment [4] concerns the target T3, monkey thyroid-stimulating hormone receptor (TSHR) (monkey, UniProt A0A2K5X226 21-764).
T3 construct: Overexpressed on 293 cells; also called monkey TSHR
As to the kind of experiment: flow cytometry (FACS), 293 cells overexpressing monkey TSHR.

Experiment [5] addresses T4, hFcRn-Avi (Biosystems, FCM-H82W7) (human (printed as hFcRn), UniProt P55899 24-297; P61769 21-119, biotin on the Avi tag is implied by capture on an SA chip).
T4 construct: Bought reagent
The experiment can be described thus: SPR (Biacore 8K+), hFcRn-Avi captured on SA chip, antibody in flow, pH 6.0, 25 C, steady-state fit. For orientation: SPR reads the build-up and loss of mass on a sensor chip optically.

Experiment [6] has as its target T1, mouse thyroid-stimulating hormone …. The experiment can be described thus: flow cytometry (FACS), 293 cells overexpressing mouse TSHR. This is another data set of the same source.
The target in experiment [7] is T3, monkey thyroid-stimulating hormone …. The experiment can be described thus: flow cytometry (FACS), 293 cells overexpressing monkey TSHR. This is another data set of the same source.
Experiment [8] deals with T2, human thyroid-stimulating hormone …. The experiment can be described thus: flow cytometry (FACS), 293 cells overexpressing human TSHR.
For experiment [9] the target is unchanged. The experiment can be described thus: cell-based or functional assay. The source holds these as a separate data set.
The target is the same in experiment [10]. The experiment can be described thus: flow cytometry (FACS), 293 cells overexpressing human TSHR. This is another data set of the same source.

T3 sequence (A0A2K5X226 entry or part of it limits assumed, form in doubt): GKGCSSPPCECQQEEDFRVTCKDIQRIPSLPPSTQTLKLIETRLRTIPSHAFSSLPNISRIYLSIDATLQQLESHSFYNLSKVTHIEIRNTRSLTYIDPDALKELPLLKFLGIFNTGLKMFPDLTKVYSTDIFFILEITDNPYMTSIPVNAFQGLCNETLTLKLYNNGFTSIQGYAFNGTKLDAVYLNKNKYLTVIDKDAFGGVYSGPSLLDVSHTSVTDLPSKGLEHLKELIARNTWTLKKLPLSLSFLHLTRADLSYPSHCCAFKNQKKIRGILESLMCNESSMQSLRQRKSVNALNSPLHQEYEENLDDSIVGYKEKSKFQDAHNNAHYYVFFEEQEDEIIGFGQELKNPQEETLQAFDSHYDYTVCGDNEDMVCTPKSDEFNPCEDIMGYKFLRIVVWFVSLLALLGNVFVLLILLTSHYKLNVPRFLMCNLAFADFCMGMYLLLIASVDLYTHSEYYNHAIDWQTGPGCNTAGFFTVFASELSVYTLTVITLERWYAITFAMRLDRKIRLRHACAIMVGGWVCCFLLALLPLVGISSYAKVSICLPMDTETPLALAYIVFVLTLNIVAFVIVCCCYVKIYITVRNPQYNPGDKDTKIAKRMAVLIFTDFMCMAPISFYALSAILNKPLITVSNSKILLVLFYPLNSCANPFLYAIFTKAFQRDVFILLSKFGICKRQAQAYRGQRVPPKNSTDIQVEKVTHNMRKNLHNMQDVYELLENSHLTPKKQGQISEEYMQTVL
T1 sequence (P47750 22-764): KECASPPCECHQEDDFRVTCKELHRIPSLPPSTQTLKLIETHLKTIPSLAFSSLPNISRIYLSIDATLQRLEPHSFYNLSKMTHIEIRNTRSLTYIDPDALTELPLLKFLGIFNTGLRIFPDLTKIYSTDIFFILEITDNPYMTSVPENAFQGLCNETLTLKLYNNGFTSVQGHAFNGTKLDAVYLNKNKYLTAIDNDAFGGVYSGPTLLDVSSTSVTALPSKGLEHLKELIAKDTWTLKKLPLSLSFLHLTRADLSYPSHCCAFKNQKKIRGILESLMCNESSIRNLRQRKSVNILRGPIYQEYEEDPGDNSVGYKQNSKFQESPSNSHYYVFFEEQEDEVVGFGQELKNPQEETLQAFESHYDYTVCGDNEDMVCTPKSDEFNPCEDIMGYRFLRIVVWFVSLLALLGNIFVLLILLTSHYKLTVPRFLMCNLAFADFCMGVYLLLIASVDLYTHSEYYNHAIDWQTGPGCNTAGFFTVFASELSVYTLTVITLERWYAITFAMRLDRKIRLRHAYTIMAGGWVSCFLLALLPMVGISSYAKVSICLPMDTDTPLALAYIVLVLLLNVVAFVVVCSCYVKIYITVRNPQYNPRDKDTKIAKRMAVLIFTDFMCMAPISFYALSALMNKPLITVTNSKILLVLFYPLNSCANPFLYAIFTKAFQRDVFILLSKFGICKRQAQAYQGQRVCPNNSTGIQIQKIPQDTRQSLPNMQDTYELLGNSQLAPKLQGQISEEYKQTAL
T4 sequence (P55899 24-297 limits assumed, chain 1 of 2): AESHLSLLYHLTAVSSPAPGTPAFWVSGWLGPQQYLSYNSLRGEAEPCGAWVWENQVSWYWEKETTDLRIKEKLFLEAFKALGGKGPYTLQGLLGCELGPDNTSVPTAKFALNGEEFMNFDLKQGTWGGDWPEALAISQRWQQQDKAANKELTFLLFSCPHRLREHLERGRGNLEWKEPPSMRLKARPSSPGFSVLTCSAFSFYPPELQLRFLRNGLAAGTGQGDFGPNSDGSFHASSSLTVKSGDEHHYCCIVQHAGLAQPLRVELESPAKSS
T4 sequence (P61769 21-119 limits assumed, chain 2 of 2): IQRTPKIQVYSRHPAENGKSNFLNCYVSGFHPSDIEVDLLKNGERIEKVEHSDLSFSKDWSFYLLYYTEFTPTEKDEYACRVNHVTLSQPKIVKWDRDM
T2 sequence (P16473 21-764): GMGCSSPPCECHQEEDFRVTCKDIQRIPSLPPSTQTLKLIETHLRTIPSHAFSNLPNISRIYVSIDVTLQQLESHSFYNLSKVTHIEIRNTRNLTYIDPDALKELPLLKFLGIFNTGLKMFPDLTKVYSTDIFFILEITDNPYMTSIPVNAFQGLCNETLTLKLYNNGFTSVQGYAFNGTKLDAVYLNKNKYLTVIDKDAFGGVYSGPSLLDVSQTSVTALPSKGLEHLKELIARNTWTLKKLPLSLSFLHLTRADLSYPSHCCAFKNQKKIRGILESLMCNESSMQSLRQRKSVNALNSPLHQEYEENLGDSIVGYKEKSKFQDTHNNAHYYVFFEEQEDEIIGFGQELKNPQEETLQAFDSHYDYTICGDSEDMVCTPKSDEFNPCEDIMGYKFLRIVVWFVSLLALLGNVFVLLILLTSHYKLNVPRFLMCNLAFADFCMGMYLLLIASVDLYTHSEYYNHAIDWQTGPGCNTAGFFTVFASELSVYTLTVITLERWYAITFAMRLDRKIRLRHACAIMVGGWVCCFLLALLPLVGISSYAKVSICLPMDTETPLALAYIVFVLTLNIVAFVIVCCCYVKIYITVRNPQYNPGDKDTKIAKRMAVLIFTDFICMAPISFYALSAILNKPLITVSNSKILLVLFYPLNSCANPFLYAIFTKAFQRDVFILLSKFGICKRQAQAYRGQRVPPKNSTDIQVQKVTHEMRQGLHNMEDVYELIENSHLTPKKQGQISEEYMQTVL

B1: humanized antibody cAb01-VH2-DA-VL3 (named hAb01_G4P) (antibody, human IgG4 S228P, kappa)
heavy: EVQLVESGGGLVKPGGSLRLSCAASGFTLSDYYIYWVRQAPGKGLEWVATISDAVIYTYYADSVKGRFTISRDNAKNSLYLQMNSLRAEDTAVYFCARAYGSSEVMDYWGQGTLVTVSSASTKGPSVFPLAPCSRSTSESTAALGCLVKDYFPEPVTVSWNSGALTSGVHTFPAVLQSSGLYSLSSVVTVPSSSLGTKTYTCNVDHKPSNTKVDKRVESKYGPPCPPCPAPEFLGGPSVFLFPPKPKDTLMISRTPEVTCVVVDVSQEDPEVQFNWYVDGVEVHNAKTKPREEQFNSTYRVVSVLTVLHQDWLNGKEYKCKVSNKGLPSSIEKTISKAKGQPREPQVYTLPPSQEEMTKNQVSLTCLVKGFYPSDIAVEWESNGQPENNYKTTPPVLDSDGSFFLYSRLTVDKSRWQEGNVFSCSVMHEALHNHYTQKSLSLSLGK
light: EIVLTQSPATLSLSPGERATLSCSASSSVSYMHWYQQKPGQAPKRWIYDTSKLASGVPARFSGSGSGTDYTLTISSLEPEDFAVYYCQQWSSNPWTFGGGTKLEIKRTVAAPSVFIFPPSDEQLKSGTASVVCLLNNFYPREAKVQWKVDNALQSGNSQESVTEQDSKDSTYSLSSTLTLSKADYEKHKVYACEVTHQGLSSPVTKSFNRGEC
In [1], B1 yielded a 50% effective concentration (EC50) of 3.22 nM and a Maximum binding signal of 123000. In addition, in experiment [2], the “IC50 (nM), cAMP in 293-human TSHR cells activated by Tab01” value (from here on “IC50 (nM), cAMP … by Tab01”) amounted to 2.28 nM; the “IC50 (nM), cAMP in 293-human TSHR cells activated by Tab02” value (shortened to “IC50 (nM), cAMP … by Tab02”) is 2.4 nM; the “Maximum inhibition rate (%), cAMP in 293-human TSHR cells activated by Tab01” value (“Maximum inhibition rate (%), cAMP … by Tab01” below) turned out to be 102%; the “Maximum inhibition rate (%), cAMP in 293-human TSHR cells activated by Tab02” value (“Maximum inhibition rate (%), cAMP … by Tab02” below) was found to be 94.2%. Besides, in experiment [3], the “IC50(nM), cAMP in 293-human TSHR cells activated by Tab01 (30 nM)” value (“IC50(nM), cAMP … (30 nM)” below) worked out at 2.2 nM and the “IC50(nM), cAMP in 293-human TSHR cells activated by Tab02 (6.5 nM)” value (from here on “IC50(nM), cAMP … (6.5 nM)”) stood at 2.2 nM. In experiment [4], this molecule yielded an EC50 of 2.6 nM and a Maximum binding signal of 193000. In addition, in [5], binding was characterised by a dissociation constant (Kd) of 343 nM and the “Response value (RU)” value is 35.8 RU.

B2: hAb01_G4P_V2 (antibody, human IgG4 S228P, kappa)
heavy: EVQLVESGGGLVKPGGSLRLSCAASGFTLSDYYIYWVRQAPGKGLEWVATISDAVIYTYYADSVKGRFTISRDNAKNSLYLQMNSLRAEDTAVYFCARAYGSSEVMDYWGQGTLVTVSSASTKGPSVFPLAPCSRSTSESTAALGCLVKDYFPEPVTVSWNSGALTSGVHTFPAVLQSSGLYSLSSVVTVPSSSLGTKTYTCNVDHKPSNTKVDKRVESKYGPPCPPCPAPEFEGGPSVFLFPPKPKDTLYITREPEVTCVVVDVSQEDPEVQFNWYVDGVEVHNAKTKPREEQFNSTYRVVSVLTVLHQDWLNGKEYKCKVSNKGLPSSIEKTISKAKGQPREPQVYTLPPSQEEMTKNQVSLTCLVKGFYPSDIAVEWESNGQPENNYKTTPPVLDSDGSFFLYSRLTVDKSRWQEGNVFSCSVMHEALHNHYTQKSLSLSLGK
light: B1 light
notes: also called hAb01_G4_V2
In experiment [6], B2 returned an EC50 of 2.43 nM and a Max_MFI of 135000. Moreover, in experiment [2], the “IC50 (nM), cAMP … by Tab01” value was determined as 4.18 nM; the “IC50 (nM), cAMP … by Tab02” value is 4.38 nM; the “Maximum inhibition rate (%), cAMP … by Tab01” value worked out at 106%; the “Maximum inhibition rate (%), cAMP … by Tab02” value was 100%. In experiment [7], this molecule displayed an EC50 of 2.94 nM and a Max_MFI of 189000. Further, in [5], the Kd amounted to 121 nM and the “Response value (RU)” value was 73.5 RU. In experiment [8], the EC50 stood at 4.64 nM and the Max_MFI was 287000.

B3: humanized antibody cAb01-VH1-DA-VL3 (antibody, human IgG4 S228P, kappa, V domains shown)
VH: EVQLVESGGGLVKPGGSLRLSCAASGFTLSDYYIYWVRQAPGKGLEWVSTISDAVIYTYYADSVKGRFTISRDNAKNSLYLQMNSLRAEDTAVYYCARAYGSSEVMDYWGQGTLVTVSS
VL: EIVLTQSPATLSLSPGERATLSCSASSSVSYMHWYQQKPGQAPKRWIYDTSKLASGVPARFSGSGSGTDYTLTISSLEPEDFAVYYCQQWSSNPWTFGGGTKLEIKR
notes: Humanized from mAb001
Regarding B3, in experiment [1], a half-maximal effect (EC50) was put at 2.9 nM and the Maximum binding signal worked out at 106000. In [3], the “IC50(nM), cAMP … (30 nM)” value is 0.085 nM and the “IC50(nM), cAMP … (6.5 nM)” value stood at 0.054 nM. Further, in [4], a half-maximal effect (EC50) was put at 2.3 nM and the Maximum binding signal worked out at 180000.

B4: humanized antibody cAb01-VH2-DA-VL2 (antibody, human IgG4 S228P, kappa, V domains shown)
VH: B3 VH with S49A, Y95F
VL: B3 VL with K44R, V57I
notes: Humanized from mAb001
In experiment [1], B4 showed a half-maximal effective concentration (EC50) of 2.16 nM and a Maximum binding signal of 117000. For the same molecule, in [9], the “IC50(nM), cAMP … (30 nM)” value worked out at 0.28 nM; the “IC50(nM), cAMP … (6.5 nM)” value turned out to be 0.15 nM; the “Inhibition rate (%), cAMP in 293-human TSHR cells activated by Tab01 (30 nM)” value is 76.7%; the “Inhibition rate (%), cAMP in 293-human TSHR cells activated by Tab02 (6.5 nM)” value was found to be 86.2%. In experiment [10], this molecule yielded a concentration giving a half-maximal response (EC50) of 3.71 nM and a Maximum binding signal of 396000. In [4], this molecule gave a half-maximal effective concentration (EC50) of 2.14 nM and a Maximum binding signal of 193000.

B5: hAb01_G1_V4 (antibody, human IgG1, kappa, L234A L235A)
heavy: EVQLVESGGGLVKPGGSLRLSCAASGFTLSDYYIYWVRQAPGKGLEWVATISDAVIYTYYADSVKGRFTISRDNAKNSLYLQMNSLRAEDTAVYFCARAYGSSEVMDYWGQGTLVTVSSASTKGPSVFPLAPSSKSTSGGTAALGCLVKDYFPEPVTVSWNSGALTSGVHTFPAVLQSSGLYSLSSVVTVPSSSLGTQTYICNVNHKPSNTKVDKKVEPKSCDKTHTCPPCPAPEAAGGPSVFLFPPKPKDTLYITREPEVTCVVVDVSHEDPEVKFNWYVDGVEVHNAKTKPREEQYNSTYRVVSVLTVLHQDWLNGKEYKCKVSNKALPAPIEKTISKAKGQPREPQVYTLPPSRDELTKNQVSLTCLVKGFYPSDIAVEWESNGQPENNYKTTPPVLDSDGSFFLYSKLTVDKSRWQQGNVFSCSVMHEALHNHYTQKSLSLSPGK
light: B1 light
In experiment [6], B5 yielded an EC50 of 2.75 nM and a Max_MFI of 178000. In experiment [2], the “IC50 (nM), cAMP … by Tab01” value stood at 5.4 nM; the “IC50 (nM), cAMP … by Tab02” value turned out to be 2.04 nM; the “Maximum inhibition rate (%), cAMP … by Tab01” value came to 94%; the “Maximum inhibition rate (%), cAMP … by Tab02” value stood at 91.1%. In [7], this molecule had a 50% effective concentration (EC50) of 2.77 nM and a Max_MFI of 244000. Further, in [5], the affinity, expressed as Kd, was 90 nM and the “Response value (RU)” value amounted to 94.5 RU. In experiment [8], this molecule gave an EC50 of 4.4 nM and a Max_MFI of 371000.

The values above are taken from EP4582451A1 (Changchun Genescience Pharmaceutical Co., Ltd., dated 2025).
